Results: PMC2756588

T1: Bud14, P27637
T1 sequence (P27637 247-328, looked up): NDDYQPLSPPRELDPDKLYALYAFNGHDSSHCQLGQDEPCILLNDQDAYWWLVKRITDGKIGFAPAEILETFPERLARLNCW

T2: Boi2, P39969
T2 sequence (P39969 32-116, looked up): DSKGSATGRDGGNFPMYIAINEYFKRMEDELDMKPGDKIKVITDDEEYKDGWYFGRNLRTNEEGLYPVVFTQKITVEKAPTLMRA

T3: Pin3, Q06449
T3 sequence (Q06449 53-122, looked up): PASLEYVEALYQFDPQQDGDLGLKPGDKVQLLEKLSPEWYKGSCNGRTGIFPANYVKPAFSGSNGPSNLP

T4: Hse1, P38753
T4 sequence (P38753 208-285, looked up): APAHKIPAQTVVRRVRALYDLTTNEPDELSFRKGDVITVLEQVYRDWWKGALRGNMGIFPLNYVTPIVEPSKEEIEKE

T5: Boi1, P38041
T5 sequence (P38041 1-86, looked up): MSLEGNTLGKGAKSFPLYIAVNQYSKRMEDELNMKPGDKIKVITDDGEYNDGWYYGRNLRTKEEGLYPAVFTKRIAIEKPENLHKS

T6: Sla1-2, P32790
T6 sequence (P32790 60-140, looked up): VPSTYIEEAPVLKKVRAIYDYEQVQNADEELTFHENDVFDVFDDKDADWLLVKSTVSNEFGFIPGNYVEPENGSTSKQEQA

T7: Bzz1-2, P38822
T7 sequence (P38822 568-633, looked up): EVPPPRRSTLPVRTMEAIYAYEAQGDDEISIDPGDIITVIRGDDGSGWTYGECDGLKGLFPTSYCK

T8: Hof1, Q05080
T8 sequence (Q05080 590-669, looked up): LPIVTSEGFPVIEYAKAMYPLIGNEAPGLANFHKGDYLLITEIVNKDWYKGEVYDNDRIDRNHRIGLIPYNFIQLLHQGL

T9: Cyk3, Q07533
T9 sequence (Q07533 1-83, looked up): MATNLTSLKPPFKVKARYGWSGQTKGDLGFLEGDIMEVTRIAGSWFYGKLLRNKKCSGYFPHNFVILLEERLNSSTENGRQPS

T10: Lsb1, P53281
T10 sequence (P53281 45-122, looked up): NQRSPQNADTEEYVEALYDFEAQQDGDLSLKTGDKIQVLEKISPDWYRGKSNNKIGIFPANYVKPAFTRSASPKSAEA

T11: Bbc1, P47068
T11 sequence (P47068 1-78, looked up): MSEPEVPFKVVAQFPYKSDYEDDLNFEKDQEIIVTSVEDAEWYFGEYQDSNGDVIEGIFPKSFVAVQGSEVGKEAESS

T12: Sla1-3, P32790
T12 sequence (P32790 344-424, looked up): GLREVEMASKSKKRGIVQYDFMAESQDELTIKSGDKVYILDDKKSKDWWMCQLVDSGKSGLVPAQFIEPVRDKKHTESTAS

T13: Lsb4, P32793
T13 sequence (P32793 402-468, looked up): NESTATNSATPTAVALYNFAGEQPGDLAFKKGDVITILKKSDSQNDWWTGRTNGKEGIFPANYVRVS

T14: Myo5, Q04439
T14 sequence (Q04439 1072-1160, looked up): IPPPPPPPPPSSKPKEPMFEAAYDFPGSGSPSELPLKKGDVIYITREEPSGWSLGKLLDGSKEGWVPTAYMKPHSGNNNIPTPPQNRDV

T15: Nbp2, Q12163
T15 sequence (Q12163 103-180, looked up): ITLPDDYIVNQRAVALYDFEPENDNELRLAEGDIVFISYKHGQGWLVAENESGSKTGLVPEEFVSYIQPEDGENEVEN

T16: Pex13, P80667
T16 sequence (P80667 295-386, looked up): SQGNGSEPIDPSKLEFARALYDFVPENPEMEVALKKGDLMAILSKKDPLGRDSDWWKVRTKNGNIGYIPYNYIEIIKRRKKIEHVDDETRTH

T17: Bzz1-1, P38822
T17 sequence (P38822 478-572, looked up): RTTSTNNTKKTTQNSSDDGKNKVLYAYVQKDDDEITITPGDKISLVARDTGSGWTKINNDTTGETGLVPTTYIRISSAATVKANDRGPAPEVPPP

T18: Lsb3, P43603
T18 sequence (P43603 385-451, looked up): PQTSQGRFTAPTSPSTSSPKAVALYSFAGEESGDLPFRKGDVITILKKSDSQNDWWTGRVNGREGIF

T19: Cdc25, P04821
T19 sequence (P04821 50-136, looked up): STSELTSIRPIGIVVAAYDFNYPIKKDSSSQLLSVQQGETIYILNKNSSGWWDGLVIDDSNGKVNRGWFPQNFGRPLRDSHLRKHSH

T20: Fus1, P11710
T20 sequence (P11710 432-512, looked up): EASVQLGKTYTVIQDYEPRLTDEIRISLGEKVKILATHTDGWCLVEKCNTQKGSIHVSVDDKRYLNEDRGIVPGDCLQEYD

T21: Abp1, P15891
T21 sequence (P15891 535-592, looked up): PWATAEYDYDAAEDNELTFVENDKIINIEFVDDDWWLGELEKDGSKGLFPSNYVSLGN

B1: unnamed (peptide)
chain: RRRRRPHRIERPLSN
B2: unnamed (peptide)
chain: HRRRRVFSIPSLKSI
B3: unnamed (peptide)
chain: VNFRRIPTGPDSPPT
B4: unnamed (peptide)
chain: KRKRFNLLLPKPYLT

Tests used:
Assay in all cases: SPOT array
Bud14, P27637 = target: T1, Bud14, P27637; settings: median of control spots 956
Boi2, P39969 = target: T2, Boi2, P39969; settings: median of control spots 1161
Myo3, P36006 = settings: median of control spots 468
Rvs167, P39743 = settings: median of control spots 2707
Rvs167, P39743, sequence (P39743 419-482): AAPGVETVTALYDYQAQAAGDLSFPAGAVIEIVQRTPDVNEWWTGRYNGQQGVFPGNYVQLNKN

Pin3, Q06449 = target: T3, Pin3, Q06449; settings: median of control spots 2171
Hse1, P38753 = target: T4, Hse1, P38753; settings: median of control spots 1727
Boi1, P38041 = target: T5, Boi1, P38041; settings: median of control spots 1162
Bem1-1, P29366 = settings: median of control spots 4282
Bem1-1, P29366, sequence (P29366 55-141): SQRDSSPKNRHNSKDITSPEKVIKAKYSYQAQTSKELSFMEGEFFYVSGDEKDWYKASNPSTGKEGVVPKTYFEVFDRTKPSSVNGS

Sla1-2, P32790 = target: T6, Sla1-2, P32790; settings: median of control spots 712
Bzz1-2, P38822 = target: T7, Bzz1-2, P38822; settings: median of control spots 4538
Hof1, Q05080 = target: T8, Hof1, Q05080; settings: median of control spots 4086
Cyk3, Q07533 = target: T9, Cyk3, Q07533; settings: median of control spots 1451
Bem1-2, P29366 = settings: median of control spots 4347
Bem1-2, P29366, sequence (P29366 139-227): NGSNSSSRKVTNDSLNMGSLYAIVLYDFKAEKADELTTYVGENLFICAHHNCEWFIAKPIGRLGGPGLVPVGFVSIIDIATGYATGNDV

Lsb1, P53281 = target: T10, Lsb1, P53281; settings: median of control spots 388
Bbc1, P47068 = target: T11, Bbc1, P47068; settings: median of control spots 796
Sla1-3, P32790 = target: T12, Sla1-3, P32790; settings: median of control spots 5475
Lsb4, P32793 = target: T13, Lsb4, P32793; settings: median of control spots 397
Myo5, Q04439 = target: T14, Myo5, Q04439; settings: median of control spots 471
Nbp2, Q12163 = target: T15, Nbp2, Q12163; settings: median of control spots 357
Pex13, P80667 = target: T16, Pex13, P80667; settings: median of control spots 1341
Bzz1-1, P38822 = target: T17, Bzz1-1, P38822; settings: median of control spots 4446
GST = settings: median of control spots 978
Lsb3, P43603 = target: T18, Lsb3, P43603; settings: median of control spots 406
Cdc25, P04821 = target: T19, Cdc25, P04821; settings: median of control spots 969
Fus1, P11710 = target: T20, Fus1, P11710; settings: median of control spots 1200
Abp1, P15891 = target: T21, Abp1, P15891; settings: median of control spots 935
Sho1, P40073 = settings: median of control spots 1148
Sho1, P40073, sequence (P40073 287-367): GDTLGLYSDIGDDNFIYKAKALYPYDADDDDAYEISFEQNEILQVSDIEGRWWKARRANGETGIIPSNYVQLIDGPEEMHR

Row | Binder | SPOT intensity (Bud14, P27637) | SPOT intensity (Boi2, P39969) | SPOT intensity (Myo3, P36006) | SPOT intensity (Rvs167, P39743) | SPOT intensity (Pin3, Q06449) | SPOT intensity (Hse1, P38753) | SPOT intensity (Boi1, P38041) | SPOT intensity (Bem1-1, P29366) | SPOT intensity (Sla1-2, P32790) | SPOT intensity (Bzz1-2, P38822) | SPOT intensity (Hof1, Q05080) | SPOT intensity (Cyk3, Q07533) | SPOT intensity (Bem1-2, P29366) | SPOT intensity (Lsb1, P53281) | SPOT intensity (Bbc1, P47068) | SPOT intensity (Sla1-3, P32790) | SPOT intensity (Lsb4, P32793) | SPOT intensity (Myo5, Q04439) | SPOT intensity (Nbp2, Q12163) | SPOT intensity (Pex13, P80667) | other results
1 | B1 | 24 | 0 | 7 | 4 | 1 | 16 | 9 | 1 | 0 | 5 | 4 | 5 | 5 | 0 | 515 | 25 | 6 | 1 | 74 | 2 | SPOT intensity (Bzz1-1, P38822): 2; SPOT intensity (GST): 1; SPOT intensity (Lsb3, P43603): 8; SPOT intensity (Cdc25, P04821): 28; SPOT intensity (Fus1, P11710): 43; SPOT intensity (Abp1, P15891): 133; SPOT intensity (Sho1, P40073): 270
2 | B2 | 64 | 4 | 6 | 3 | 7 | 19 | 15 | 1 | 0 | 5 | 17 | 5 | 8 | 114 | 395 | 117 | 10 | 0 | 176 | 4 | SPOT intensity (Bzz1-1, P38822): 3; SPOT intensity (GST): 1; SPOT intensity (Lsb3, P43603): 5; SPOT intensity (Cdc25, P04821): 131; SPOT intensity (Fus1, P11710): 136; SPOT intensity (Abp1, P15891): 158; SPOT intensity (Sho1, P40073): 123
3 | B3 | 3 | 0 | 0 | 2 | 0 | 4 | 0 | 0 | 0 | 3 | 3 | 0 | 0 | 0 | 2 | 17 | 2 | 0 | 0 | 6 | SPOT intensity (Bzz1-1, P38822): 0; SPOT intensity (GST): 0; SPOT intensity (Lsb3, P43603): 2; SPOT intensity (Cdc25, P04821): 0; SPOT intensity (Fus1, P11710): 0; SPOT intensity (Abp1, P15891): 5; SPOT intensity (Sho1, P40073): 19
4 | B4 | 34 | 2 | 0 | 3 | 0 | 12 | 9 | 3 | 2 | 6 | 4 | 3 | 4 | 0 | 175 | 34 | 1 | 0 | 53 | 3 | SPOT intensity (Bzz1-1, P38822): 3; SPOT intensity (GST): 2; SPOT intensity (Lsb3, P43603): 0; SPOT intensity (Cdc25, P04821): 32; SPOT intensity (Fus1, P11710): 64; SPOT intensity (Abp1, P15891): 72; SPOT intensity (Sho1, P40073): 98
